Source: publication PMC3861664 (The Journal of Biological Chemistry, 2013)

T1: glucagon receptor extracellular domain with the naturally occurring G40S mutation (recombinant, soluble) (human)
T1 chain: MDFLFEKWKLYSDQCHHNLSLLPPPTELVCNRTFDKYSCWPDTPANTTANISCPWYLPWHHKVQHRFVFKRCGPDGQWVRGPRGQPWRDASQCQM

T2: glucagon receptor extracellular domain, wild type (recombinant, soluble) (Homo sapiens)
T2 construct: glucagon receptor (GCGR), human, extracellular domain; A biotinylated form was used for phage selections; also called GCGR ECD; WT ECD
T2 chain: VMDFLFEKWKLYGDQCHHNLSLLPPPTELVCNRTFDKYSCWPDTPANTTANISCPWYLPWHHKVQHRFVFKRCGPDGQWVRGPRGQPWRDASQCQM

B1: mAb7.v35, humanized mAb7 with S54T/N97G (IgG) (antibody, V domains shown)
VH: EVQLVESGPGLVKPSETLSLSCTVSGDSITSGFWNWIRQPPGKGLEWIGYIGFTGSTYYNPSLKSRVTISRDTSKNQYSLKLSSVTAADTAVYYCASVDGSAALDYWGQGTLVTVSS
VL: DIVMTQTPLSLPVTPGQPASISCRSSQSLVHSNGNTYLHWYLQKPGQSPQLLIYKVSNRFSGVPDRFSGSGSGTDFTLKISRVEAEDVGVYYCSQSTHVPWTFGQGTKVEIK
notes: mAb7.v1 heavy chain with S54T (CDR H2) and N97G (CDR H3); that is the heavy chain of m13 (PDB 4LEX) with S28T put back and N97G added; as the light chain of m13 (PDB 4LEX); IgG; The methods say that mutations found in the humanised background were also introduced into murine mAb7 clones; source: recombinant antibody
B2: mAb7.v19, humanized mAb7 with N97G (IgG) (antibody, V domains shown)
VH: EVQLVESGPGLVKPSETLSLSCTVSGDSITSGFWNWIRQPPGKGLEWIGYIGFSGSTYYNPSLKSRVTISRDTSKNQYSLKLSSVTAADTAVYYCASVDGSAALDYWGQGTLVTVSS
VL: DIVMTQTPLSLPVTPGQPASISCRSSQSLVHSNGNTYLHWYLQKPGQSPQLLIYKVSNRFSGVPDRFSGSGSGTDFTLKISRVEAEDVGVYYCSQSTHVPWTFGQGTKVEIK
notes: mAb7.v1 heavy chain with N97G (CDR H3); that is the heavy chain of m13 (PDB 4LEX) with S28T and S54T put back and N97G added; as the light chain of m13 (PDB 4LEX); IgG; also called N97G containing antibody; source: recombinant antibody
B3: mAb1, inhibitory anti-GCGR monoclonal antibody (antibody, V domains shown)
VH: QVQLVESGGGVVQPGRSLRLSCAASGFTFSSYGMHWVRQAPGKGLEWVAVMWYDGSNKDYVDSVKGRFTISRDNSKNTLYLQMNRLRAEDTAVYYCAREKDHYDILTGYNYYYGLDVWGQGTTVTVSS
VL: DIQMTQSPSSLSASVGDRVTITCRASQGIRNDLGWYQQKPGKAPKRLIYAASSLESGVPSRFSGSGSGTEFTLTISSVQPEDFVTYYCLQHNSNPLTFGGGTKVEIK
notes: as the heavy chain of the mAb1 Fab in PDB 4LF3 and 4ERS; as the light chain of the mAb1 Fab in PDB 4LF3 and 4ERS; also called anti-GCGR mAb1
B4: mAb7.v1, humanized version of mAb7 (IgG) (antibody, V domains shown)
VH: EVQLVESGPGLVKPSETLSLSCTVSGDSITSGFWNWIRQPPGKGLEWIGYIGFSGSTYYNPSLKSRVTISRDTSKNQYSLKLSSVTAADTAVYYCASVDNSAALDYWGQGTLVTVSS
VL: DIVMTQTPLSLPVTPGQPASISCRSSQSLVHSNGNTYLHWYLQKPGQSPQLLIYKVSNRFSGVPDRFSGSGSGTDFTLKISRVEAEDVGVYYCSQSTHVPWTFGQGTKVEIK
notes: as the light chain of m13 (PDB 4LEX); IgG; source: recombinant antibody
B5: mAb7.v11, humanized mAb7 with S54T (IgG) (antibody, V domains shown)
VH: EVQLVESGPGLVKPSETLSLSCTVSGDSITSGFWNWIRQPPGKGLEWIGYIGFTGSTYYNPSLKSRVTISRDTSKNQYSLKLSSVTAADTAVYYCASVDNSAALDYWGQGTLVTVSS
VL: DIVMTQTPLSLPVTPGQPASISCRSSQSLVHSNGNTYLHWYLQKPGQSPQLLIYKVSNRFSGVPDRFSGSGSGTDFTLKISRVEAEDVGVYYCSQSTHVPWTFGQGTKVEIK
notes: mAb7.v1 heavy chain with S54T (CDR H2); that is the heavy chain of m13 (PDB 4LEX) with S28T put back; as the light chain of m13 (PDB 4LEX); IgG; also called S54T alone; source: recombinant antibody

Tests used:
[1] = molecular target: T1, glucagon receptor extracellular domain …; assay: AlphaScreen competition with WT ECD
[2] = molecular target: T2, glucagon receptor extracellular domain, …; assay: AlphaScreen or HTRF; competition: soluble WT or G40S GCGR ECD against WT GCGR ECD on donor beads for binding to mAb7, its variants (IgG) or mAb1 on acceptor beads; settings: both partners purified

Row | Binder | IC50 [1] | binding result [2]
1 | B1 | 21 nM | binds
2 | B2 | 87 nM | binds
3 | B3 | – | binds
4 | B4 | – | binds
5 | B5 | – | binds
